In patent US20030223991A1:

Columns and labels:
[1] = biological target: human CD200Ra (SEQ ID NO:2) (human) (UniProt Q8TD46); assay: cell-based or functional assay
[2] = biological target: mouse CD200Ra (SEQ ID NO:6) (mouse) (UniProt Q9ES57); assay: cell-based or functional assay
Chain of UniProt Q9ES57 (Q9ES57 26-326 limits assumed): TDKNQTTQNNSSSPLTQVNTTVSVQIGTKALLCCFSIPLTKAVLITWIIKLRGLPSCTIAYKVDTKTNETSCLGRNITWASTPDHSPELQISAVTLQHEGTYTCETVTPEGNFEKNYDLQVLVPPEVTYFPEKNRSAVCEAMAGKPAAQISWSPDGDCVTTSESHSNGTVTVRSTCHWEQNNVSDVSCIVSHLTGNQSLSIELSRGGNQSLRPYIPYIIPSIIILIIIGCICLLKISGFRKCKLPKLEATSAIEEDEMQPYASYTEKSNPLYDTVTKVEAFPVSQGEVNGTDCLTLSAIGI

Chain of UniProt Q8TD46 (Q8TD46 other isoform, or with tags, fused parts or gaps limits assumed): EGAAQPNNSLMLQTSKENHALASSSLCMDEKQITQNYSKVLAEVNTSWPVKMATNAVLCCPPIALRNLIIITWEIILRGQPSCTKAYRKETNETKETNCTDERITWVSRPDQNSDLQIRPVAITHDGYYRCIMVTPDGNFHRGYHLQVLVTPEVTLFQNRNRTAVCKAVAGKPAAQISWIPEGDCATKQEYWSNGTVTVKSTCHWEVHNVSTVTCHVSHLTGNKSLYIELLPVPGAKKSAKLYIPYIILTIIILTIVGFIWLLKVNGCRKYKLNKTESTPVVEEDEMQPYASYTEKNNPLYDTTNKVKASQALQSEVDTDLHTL

Row | Substance | Bioassay IC50 (inhibition of β-hexosaminidase secretion by mouse mast cells expressing human CD200Ra) [1] | Bioassay IC50 (inhibition of mast cell secretion) [2]
1 | huCD200-Ig (from UniProt P41217 31-232) (Fc fusion) | 0.3 nM | –
2 | muCD200-Ig (from UniProt O54901 31-232) (Fc fusion) | – | 1.3 nM
